Laboratory results taken from the supplement of paper PMC9170038.

System: MS2 coat protein
Assay: apparent KD of MS2 coat protein; higher = weaker reporter binding
Conditions: Eterna round: R107
Outline: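 With or without constant ligand, designed RNA switches in 100 mM Tris-HCl pH 7.5, 80 mM KCl and 4 mM MgCl2 were titrated with SNAP-549-labelled MS2 coat protein. Concentrations went up in twofold steps from 0.7 or 1.5 nM to 3 µM. The switches had been transcribed on-chip from Illumina sequencing clusters, and apparent KD is the per-design median of normalised cluster binding-curve fits.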

[1] = input ligand: theophylline 20 uM
[2] = input ligand: theophylline 2 mM
[3] = input ligand: tryptophan 2.4 mM

Row | Sequence | apparent KD of MS2 coat protein (input ligand: arginine 13.2 mM) [nM] | apparent KD of MS2 coat protein (input ligand: none) [nM] | apparent KD of MS2 coat protein [1] [nM] | apparent KD of MS2 coat protein [2] [nM] | apparent KD of MS2 coat protein [3] [nM]
1 | GGUUGGUUUAUAUAUAGAUUGAUUACUGAAGGAGCGGGAAAUAACCCAGGUAGGUCGCAGAGAUCCACAUGAGGAUCACCCAUGU [!0.I] | 34.2 | 39.5 | 50.6 | 53 | 42.9
2 | GGACUAACCAGAAGGAGCGACACGCAGAAACUGCUAUUUCCUCCGCACGAGGAUCACCCGUGUCAGGUAGGUCGCUGGUUAGUCG [ArgBX 28] | 22.1 | 19.5 | 25.4 | 20.3 | 21.4
3 | GGUCUGUGGAGCGAUACCAGCUUGAGUGUACUGGCCAGGUACAUGAGGAUCACCCAUGUAAGCCCUUGGCAGCGCUCCAGAGACC [#1 Exclusion - Theophylline B Attempt #17 (HarryS)] | 7.42 | 9.29 | 13.8 | 31.5 | 10.9
4 | UGAUCCUACAGAGAUACCAGUGCCGCUGAGUGACCAGACACAUGAGGAUCACCCAUGUAACACCCUUGGCAGCUCAACUAGAGGG [Same State Theophylline B GF19] | 12.8 | 18.4 | 18.7 | 98.7 | 22
5 | AUACAUGAGGAUCACCCAUGUCAUUCAGAAGGAGCGUCAUUUUAGACAGGUAGGUCGCUGUUAUUUUUAUUAUUCUUUAUGUUUU [JR_Nu_ExcArginiA_Sub025] | 19.4 | 20.1 | 27.2 | 21.3 | 20.5
6 | UUUUUUUUGGGAAGGAGCGGGAACAUGUGGAUCUCCCAUGUACAUGAGGAUCACCCAUGUACCCAGGUAGGUCGCCCAUUUUUUU [Exclusion - Arginine B] | 69.5 | 102 | 94.7 | 112 | 66.2
7 | CAACAAGUAACUGAUACCAGUGUACUGACAUGAGGAUCACCCAUGUUGGGUUUUGUUGUACACCCUUGGCAGCAGAAUCUUGUUG [AstrosExyTheB#21] | 44.7 |  | 67.7 |  | 50
8 | CACUAUGAGGUCGAUACCAGUACUGAGUUGUACAUGAGGAUCACCCAUGUAAAUGUUCGCUACCCUUGGCAGCGAUAACAUUGCA [theeternabot_sameState_MS2_Theo_B_34] | 73.8 |  | 331 |  | 246
9 | AGCAGUACAACAGAUACCAGACUUUUAAUGCCUCUAAUUACAUGAGGAUCACCCAUGUUUGUCCCUUGGCAGCUGUUGUACUGCA [JR_ExcTheophyB_Sub010] | 72.4 |  | 200 |  | 124
10 | CUCAUCCACGCGGCCGCCACUAUAUUGUGGUGUGAGUGUGACGUAUUACAUGAGGAUCACCCAUGUAGGACCGGGCGUGGAUGAG [#06 Exclusion Tryptophan B] | 30.9 |  | 51.3 | 50.2 | 
11 | AAGCAGGGUGUAAAAUAAAUAAUCACUGAUACCAGACUAUGAGAUGUCCCUUGGCAGCAGAAACAUGAGGAUCACCCAUGUAAUA [JR_Nu_ExcTheophyA_Sub029] | 21.1 |  | 28.4 |  | 27.3
12 | AGCUCAUAGAGUGAUACCAGACUACAUGAGGAUCACCCAUGUUUCUUUUGGUUAUCAUGUGUCCCUUGGCAGCACAAGAAGAGCA [JR_ExcTheophyB_Sub015] | 13.4 |  | 20.2 |  | 12.7
13 | CCCGACGAGCCUGAGAUUAAGUAAGCGGAUACCAGAGAUAGGUAGCUCCCUUGGCAGCCGUGGACAUGAGGAUCACCCAUGUCAC [theeternabot_exclusion_MS2_Theo_A_22] | 11.4 |  | 13.5 |  | 10.9
14 | UUAUAUAUACAUGAGGAUCACCCAUGUGAUACCAGCCUGGAAACAGGCCCUUGGCAGCACAAAUACUCCAGAAAAUAUAAUAAAU [MAT - Exclusion Theophlline A - Mod of Eli - D4] | 26.1 |  | 56.8 |  | 27.8
15 | AGUCUUAAAGGAAGGAGCGCAGUCAUAACAUGAGGAUCACCCAUGUCGAGGUGAGGGUCAUUGCAGGUAGGUCGCCUUACUAAGA [Same State - Arginine B (Freestyle 6)] | 77.7 | 114 | 118 | 132 | 96.1
16 | GGAACAUGAGGAUCACCCAUGUCGAGUGGUCGAGGACCGGUACGGCCGCCACUCGACAUUGCUCAUAGGUAUAGCGUGAGAACGC [Same State - Tryptophan 1] | 100 | 326 | 546 | 961 | 618
17 | UGUAUGGACUGAAGGAGCGGGUUGAUACCAUGAGGAUCACCCAUGGAAAAGGCGAAAGCCGCCCAGGUAGGUCGCAGUCCAUACU | 14 | 12.9 | 19.7 | 18.4 | 16.6
18 | GGAUAGGACACGGCCGCCACUAGCUAGGAUACUAGCAACAUUUCCUCACAUGAGGAUCACCCAUGUAGGACCGGGUGUCCUAUCG | 79.9 |  | 145 | 112 | 
